# Earlier results as cited in publication PMC9406010.
# Legend:
# GPR1 (Homo sapiens) = GPR1 (Homo sapiens) (UniProt P46091)
# CCRL2 (Homo sapiens) = CCRL2 (Homo sapiens) (UniProt O00421)
# CMKLR1 (Homo sapiens) = CMKLR1 (Homo sapiens) (UniProt Q99788)
# Chain of CMKLR1 (Homo sapiens) (Q99788 whole entry): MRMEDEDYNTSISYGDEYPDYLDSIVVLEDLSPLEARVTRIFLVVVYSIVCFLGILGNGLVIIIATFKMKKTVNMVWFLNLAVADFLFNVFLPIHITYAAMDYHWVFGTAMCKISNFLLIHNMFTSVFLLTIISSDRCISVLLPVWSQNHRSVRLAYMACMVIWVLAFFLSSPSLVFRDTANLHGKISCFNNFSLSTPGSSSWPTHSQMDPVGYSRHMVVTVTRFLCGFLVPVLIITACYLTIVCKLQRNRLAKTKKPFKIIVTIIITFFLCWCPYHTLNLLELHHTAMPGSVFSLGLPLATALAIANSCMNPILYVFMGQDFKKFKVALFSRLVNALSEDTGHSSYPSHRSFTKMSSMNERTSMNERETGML
# Chain of Chemerin (Q99969 21-157): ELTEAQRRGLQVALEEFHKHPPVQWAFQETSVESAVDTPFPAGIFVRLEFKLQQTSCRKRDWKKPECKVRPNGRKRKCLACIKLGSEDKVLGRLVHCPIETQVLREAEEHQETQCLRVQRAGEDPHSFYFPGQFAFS
# Chain of CCRL2 (Homo sapiens) (O00421 whole entry): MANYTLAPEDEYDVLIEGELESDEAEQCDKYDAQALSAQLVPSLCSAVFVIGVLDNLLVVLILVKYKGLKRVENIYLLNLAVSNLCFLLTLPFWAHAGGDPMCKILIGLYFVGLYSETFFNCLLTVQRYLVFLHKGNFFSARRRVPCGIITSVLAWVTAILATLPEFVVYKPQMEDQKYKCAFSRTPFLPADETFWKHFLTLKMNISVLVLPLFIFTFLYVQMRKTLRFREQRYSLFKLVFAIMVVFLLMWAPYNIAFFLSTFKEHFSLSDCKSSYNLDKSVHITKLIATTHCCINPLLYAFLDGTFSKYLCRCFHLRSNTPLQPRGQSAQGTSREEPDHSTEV
# Chain of GPR1 (Homo sapiens) (P46091 whole entry): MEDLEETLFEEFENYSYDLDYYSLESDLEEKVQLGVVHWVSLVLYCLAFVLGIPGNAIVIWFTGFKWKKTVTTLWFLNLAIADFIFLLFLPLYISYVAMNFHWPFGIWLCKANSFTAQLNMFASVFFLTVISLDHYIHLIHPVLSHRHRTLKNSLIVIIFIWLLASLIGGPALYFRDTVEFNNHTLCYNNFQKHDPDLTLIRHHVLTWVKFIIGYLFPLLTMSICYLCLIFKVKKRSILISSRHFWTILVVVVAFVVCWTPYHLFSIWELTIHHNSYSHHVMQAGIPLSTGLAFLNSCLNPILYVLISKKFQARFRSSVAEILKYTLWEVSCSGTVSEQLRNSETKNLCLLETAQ
substance,measurement,setting,value
Chemerin (from UniProt Q99969),Kd,GPR1 (Homo sapiens),0.21 nM
same,Kd,CCRL2 (Homo sapiens),2.35 nM
same,Kd,CMKLR1 (Homo sapiens),0.88 nM
